One series deals with T1, Cas2 (Escherichia coli, UniProt P45956 1-94).
T1 sequence: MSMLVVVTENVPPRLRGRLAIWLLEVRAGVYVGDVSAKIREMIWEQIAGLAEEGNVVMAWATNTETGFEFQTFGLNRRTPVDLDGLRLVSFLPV
The series is described as follows: EMSA; 5 mM EDTA; EMSA: 7 mM Tris-HCl pH 8.5, 9% glycerol, 50 mM NaCl, 100 ug/ml BSA, 5 mM EDTA, 10 min ambient temperature, 6 nM DNA, 5% acrylamide TBE gel at room temperature. Conditions: protein: recombinant; tags: N-terminal His6; chain copies: 2; label: 5'-32P; fork; 25 nt leading arm duplex, 26 nt ssDNA flap.

The target of series [1] is T2, Cas1 (Escherichia coli, UniProt Q46896 1-305).
T2 sequence: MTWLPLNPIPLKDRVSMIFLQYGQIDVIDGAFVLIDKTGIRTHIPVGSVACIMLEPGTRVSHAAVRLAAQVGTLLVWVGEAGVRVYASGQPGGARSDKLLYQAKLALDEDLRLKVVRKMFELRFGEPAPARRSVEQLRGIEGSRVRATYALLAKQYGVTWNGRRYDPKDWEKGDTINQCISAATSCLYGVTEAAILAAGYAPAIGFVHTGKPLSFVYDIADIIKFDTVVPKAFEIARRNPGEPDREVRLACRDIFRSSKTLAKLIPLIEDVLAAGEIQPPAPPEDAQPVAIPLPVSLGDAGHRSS
Briefly: EMSA; 5 mM EDTA; Cas1 0.1-25 nM, DNA 6 nM; EMSA: 7 mM Tris-HCl pH 8.5, 9% glycerol, 50 mM NaCl, 100 ug/ml BSA, 5 mM EDTA, 10 min ambient temperature, 6 nM DNA, 5% acrylamide TBE gel at room temperature. Conditions: protein: recombinant; tags: N-terminal His6; chain copies: 2; label: 5'-32P; fork; 25 nt leading arm duplex, 26 nt ssDNA flap.

The target in series [2] is T2, Cas1. The series is described as follows: EMSA; 5 mM EDTA; Cas1 25 nM, DNA 6 nM; similar to fork-1; EMSA: 7 mM Tris-HCl pH 8.5, 9% glycerol, 50 mM NaCl, 100 ug/ml BSA, 5 mM EDTA, 10 min ambient temperature, 6 nM DNA, 5% acrylamide TBE gel at room temperature. The following applies: protein: recombinant; tags: N-terminal His6; chain copies: 2; label: 5'-32P; fork with 4 nt ssDNA gap at branch point. (In general: Mobility shift assays separate free from complexed probe on a gel.)

2 molecules from publication PMC4678826, “Different genome stability proteins underpin primed and naïve adaptation in E. coli CRISPR-Cas immunity” can be followed below.

B1: fork-1 (mixed)
DNA 1: CAACGTCATAGACGATTACATTGCTACATGGAGCTGTCTAGAGGATCCGA
DNA 2: TCGGATCCTCTAGACAGCTCCATGATCACTGGCACTGGTAGAATTCGGC
DNA 3: GCCGAATTCTACCAGTGCCAGTGAT
Turning to B1, the binding result is on record as “no binding” with Cas2 and “binds” with Cas1 [1].

B2: fork-1a (mixed)
DNA 1: CAACGTCATAGACGATTACATTGCTACATGGAGCTGTCTAGAGGATCCGA
DNA 2: TCGGATCCTCTAGACAGCTCCATGATCACTGGCACTGGTAGAATTCGGC
DNA 3: GCCGAATTCTACCAGTGCCAGTGAT
DNA 4: AATGTAATCGTCTATGACGTTG
Regarding B2, the binding result with Cas1 [2] is on record as “binds”.
